Experiment: yeast display, Sf9 membrane polyspecificity reagent, FACS + sequencing; frameworks hold sequencing errors
Outline: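 Genes from sorted yeast were amplified by colony PCR, read by MiSeq 2 × 250 sequencing and filtered on CDR length. These cells carried a synthetic nanobody library in Saccharomyces cerevisiae BJ5465 and were sorted by FACS into low and high (top ~1%) gates on anti-HA and streptavidin fluorescence. Polyreactivity is labelled according to the gate of origin.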

Sequence | polyreactivity (PSR sort gate)
QVQLVESGGGLVQAGGSLRLSCAAYGRTLRPYAMGWYRQAPGKERELVASIRRDGSTYADSVKGRYTISLDNAKNTVYLQMNSLKPEDTAVYYCAAARGYPLSYWGQGTQVTVSS | low polyreactivity
QVQLVESGGGLVQAGGSLRLSCAAYGSIFDHYAMVWNRQAPGKERELVAAITYSDGSTYYADSVKGRFTISRDNAKNTVYLQMKSLKPEDTAVYYCAAYPRGSQRYNYWGQGTQVTVSS | high polyreactivity
QVQLVESGGGLVQAGGSLRLSCAAYGSIFDVHAMGWNRQAPGKERELVAAISDSGGSTYYADSVKGRFTISRDNAKNTVYLLMKSLKPDDTAVYYCNADWSWFNYYDFDYWGQGTHVTVSS | low polyreactivity
QVQLVESGGGLVQAGGSLRLSCAAYGSIFSTYAMGWYRQAPGKERELVAAISRSGGSTYYADSVKGRFTISRDNAKNTVYLQMNSLKPEDTAVYYCAKVGRRQRYDYWGQGTQVTVSS | high polyreactivity
QVQLVESGGGLVQAGGSLRLSCAAYGSIFWYYAMGWYRQAHGKERELVAAISASGSSTYYADSVKGRLTISRDNAKNPVYLQMNSLNPEDTAVYYCAGTYILYNDWLYHYFPEEYDSWGQGTQVTVSS | low polyreactivity
QVQLVESGGGLVQAGGSLRLSCAAYGSIFYWYAMGWYRQAPGKERELVAAISSSNDSTDYADSVKGRFTISRDNAKNTVYLQMNSLKPEDTAVYYCAALYGTIQYDYWGQGTQVTVSS | low polyreactivity
QVQLVESGGGLVQAGGSLRLSCAAYGSIYSKYAMGWYRQAPGKEREMDAAISWSDGTTYYADSVKGLFTISRDNAKYTVYLQLNSLKPEDTAVYYCNTPPQWLGRYITITFDYWGQGSQVTVSS | low polyreactivity
QVQLVESGGGLVQAGGSLRLSCAAYGSTFGYNAMGWYRQAPGKESELVAAISSTSGSTYYADSVKGRFTISRDNAKNTVYLQMNSLKPEDTAVYYCAADDGDTNAYYFWKPYYYWGQGTQVTVSS | low polyreactivity
QVQLVESGGGLVQAGGSLRLSCAAYGSTFNGNAMGWYRQAPGKERELVARISFDGTSTYYADSVKGRFTISRDNAKNTVYLQMNSLKPEDTAVYYCNVMFPRDHGFPGYGYWGQGTQVTVSS | low polyreactivity
QVQLVESGGGLVQAGGSLRLSCAAYGSTFRRYGMGWYRQAPGKERELVAAISKGGTRTYYADSVKGRFTISRDNVKNTVYLQMNSLKPEDTAVYYCAAAGASSSTPQKEDYWGQGTQVTVSS | high polyreactivity
QVQLVESGGGLVQAGGSLRLSCAAYGSTFSRYAMGWYRQAPGKERELVAAISWGGNTYYADSVKGRFTISRDNAKNTVYLQMNSLKPEDTAVYYCASVGGRFFAPYIWSVDSYDYWGQGTQVTVSS | high polyreactivity
QVQLVESGGGLVQAGGSLRLSCAAYGSTFSWYTMGWYRQAPGKERELVAAISWSGGRTYYADSVKGRFTISRDNAKNTVYLQMNSLKPEDTAVYYCAAYDYRYSLGDYQFYYWGQGTQVTVSS | low polyreactivity
QVQLVESGGGLVQAGGSLRLSCAAYGSTITYYPMGWYRQAPGKERELVAAISGSGRTHYADSVKGRFTISRDNAKNTVYLQMISLNPEDTAVYYCNARQYTYNYAFTRCKYDYWGQGTQVTVSS | high polyreactivity
QVQLVESGGGLVQAGGSLRLSCAAYGYIIDRYAMGWYRPAPGKERELVAAISSDGSTYYADSVKGRFTISRDNAKNTVYLQMNSLKPEDTAVYYGAADGGESAWGGYDYWGQGSQVTVSS | low polyreactivity
QVQLVESGGGLVQAGGSLRLSCAAYGYTFRYNAMGWYRQAPGKERELVATITRGGSTNYADSVKGRFTISRDNAKNTVYLQMNSLKPEDTAVYYCNKEAAPRGFVPSYYGRDYWGQGTQVTVSS | low polyreactivity
QVQLVESGGGLVQAGGSLRLSCADSARTFNWNAMGWYRQAHGKERELVATISRRGGSTYYADSVKGRFTISRDNAKNTVYLQMNSLKPEDTAVYDCNTAGRYGYDYWGQGTQVTVSS | high polyreactivity

Sequence | polyreactivity (PSR sort gate)
QVQLVESGGGLVQAGGSLRLSCADSGFIFGYYAMGWYRQAPGKERELVAAINKNGGSTYYADSVKGRFTISRDNAKNTVYLQMNSLKPEDTAVYYCAARARGYAWTFDYWGQGTQVTVSS | high polyreactivity
QVQLVESGGGLVQAGGSLRLSCADSGFIIGRYTMGWYRQAPGKERELVAAISFRGGSTYYADSVKGRFTISRDNAKNTVYLQMNCLKPEDTAVYYCAAYSSGPYGFDYWGQGTQVTVSS | high polyreactivity
QVQLVESGGGLVQAGGSLRLSCADSGFTCYYYTMGWNRPAPWKGRELVAAISWSGGSTYYADSVKGRFTISRDNAKNTVYLQMNSLKPEDPAVYYCNKAYPGRTYDYWGQGSQVTVSS | high polyreactivity
QVQLVESGGGLVQAGGSLRLSCADSGFTFDWYAMGWYRQAPGKERELVAAISGRGGSTYYADSVKGRFTISRDNAKNTVYLQMNSLKPEDTAVYDCNAVYGAYRYEYWGQGTQVTVSS | high polyreactivity
QVQLVESGGGLVQAGGSLRLSCADSGFTFYRYARGWYRQAPGKERELVADITSGGSTNYADSVKGRFTISRDNAKNTVYLQMNSLKPEDTAVYYCNADRWYGSVYRYGYWGQGTQVTVSS | high polyreactivity
QVQLVESGGGLVQAGGSLRLSCADSGFTLNAMGWYRHAPGKERELVAAITTGGRTYYADSVKGRFTISRDNAKNTVYLQMNSLKPEDTAVYYCGAHTYYYPVGFNYWGQGTQVTVSS | low polyreactivity
QVQLVESGGGLVQAGGSLRLSCADSGHIFFYYTMGWYRQAPGKEREMVAGITIGGSTNYADSVKVRFTISRDNAKNTVYLQMNSLKPEDTAVYYCNVVKYVYIYSYSEYYYWGQGTQVTVSS | low polyreactivity
QVQLVESGGGLVQAGGSLRLSCADSGITFVTYAMGWYRQAPGKERELVAAISRSGGRTYYADYVKGRFTISRENAKNTVYLQMNSLKPEDTAVYYCAAERKNKYDYWVQGTQVTVSS | high polyreactivity
QVQLVESGGGLVQAGGSLRLSCADSGITLYYNAMGWYRQAPGKERELVAAISWSGDSTYYADSVKGRFTISRDNAKNTVYLQMNSLKPEDTAVYYCAADRYTYYHYAWYEYWGQGTQVTVSS | low polyreactivity
QVQLVESGGGLVQAGGSLRLSCADSGLIFEDYAMGWYRQAPGKERELVAAIDWGGGSTYYADSVKGRFTISRDNAKNTVYLQMNSLKPEDTAVYYCAADSYFSYRYNYWGQGTQVTVSS | low polyreactivity
QVQLVESGGGLVQAGGSLRLSCADSGLIFQYYVMVWYRQAQGKERELVAAISARGGGTYYADSVKGRFTISRDNAKNTVYLPMNSLKPEVTAVYYCAAHQVYAGPGYDYWGQGTQVTVSS | high polyreactivity
QVQLVESGGGLVQAGGSLRLSCADSGLIFRHYAMGWYRQAPGKERELVASISYRGGSTYYADSVKGRFTISRDNPKNTVYLQMNSLKPEDTAVDYCAADTYYPTYWSVTYGYDYWGQGTQVTVSS | low polyreactivity
QVQLVESGGGLVQAGGSLRLSCADSGLIFTQYAMGWYIQAPGKEREFVAAITWNGGRTYYADSVKGRFTISRDNAKNTVYLQMNSLKPEDTAVYYCATRNTRFHLDYWGQGTQVTVSS | high polyreactivity
QVQLVESGGGLVQAGGSLRLSCADSGLTFRRYAMGWYRQAPGKERELVAAITRGGSTNYADSVKGRFTISRVNAKNTVYLQMNSLKPEDTAVYFCAAVYSTRSTSYWMDYWGQGTQVTVSS | high polyreactivity
QVQLVESGGGLVQAGGSLRLSCADSGRIFASYAMGWYRQAPRKERELVAAISWRGGTTYYADSVKGRFTSSRDNAKNTVYLQMNSLKPEDTAVYYCATTSSLGSWGYDYWGQGTQVTVSS | high polyreactivity
QVQLVESGGGLVQAGGSLRLSCADSGRIFRYYAMGWYRQAPGKERELVAAITWSGGTTIYADSVKGRFSISRDNAKNTVYLQMNSLKPEDTAVYYCNAARSRGANLVPPYRLYYWGQGTQVTVSS | low polyreactivity
